Experimental data as given in patent US20160024487.

Legend:
[1] = biological target: T1, Lys(Dnp)-ATNATMTPRIVGG-Lys(Abz)
T1 chain: KATNATMTPRIVGGK

[2] = biological target: T2, Lys(Dnp)-ATNATVYPRIVGG-Lys(Abz)
T2 chain: KATNATVYPRIVGGK

[3] = biological target: T3, Lys(Dnp)-ATNATLFPRIVGG-Lys(Abz)
T3 chain: KATNATLFPRIVGGK

[4] = biological target: T4, Lys(Dnp)-ATNATFMPRIVGG-Lys(Abz)
T4 chain: KATNATFMPRIVGGK

[5] = biological target: T5, Lys(Dnp)-ATNATLHPRIVGG-Lys(Abz)
T5 chain: KATNATLHPRIVGGK

[6] = biological target: T6, Lys(Dnp)-ATNATLQPRIVGG-Lys(Abz)
T6 chain: KATNATLQPRIVGGK

[7] = biological target: T7, Lys(Dnp)-ATNATMKPRIVGG-Lys(Abz)
T7 chain: KATNATMKPRIVGGK

[8] = biological target: T8, Lys(Dnp)-ATNATAIPRIVGG-Lys(Abz)
T8 chain: KATNATAIPRIVGGK

[9] = biological target: T9, Lys(Dnp)-ATNATFQPRIVGG-Lys(Abz)
T9 chain: KATNATFQPRIVGGK

[10] = biological target: T10, Lys(Dnp)-ATNATAGPRIVGG-Lys(Abz)
T10 chain: KATNATAGPRIVGGK

[11] = biological target: T11, Lys(Dnp)-ATNATIIPRIVGG-Lys(Abz)
T11 chain: KATNATIIPRIVGGK

[12] = biological target: T12, Lys(Dnp)-ATNATVMPRIVGG-Lys(Abz)
T12 chain: KATNATVMPRIVGGK

[13] = biological target: T13, Lys(Dnp)-ATNATWAPRIVGG-Lys(Abz)
T13 chain: KATNATWAPRIVGGK

[14] = biological target: T14, Lys(Dnp)-ATNATFHPRIVGG-Lys(Abz)
T14 chain: KATNATFHPRIVGGK

[15] = biological target: T15, Lys(Dnp)-ATNATIRPRIVGG-Lys(Abz)
T15 chain: KATNATIRPRIVGGK

[16] = biological target: T16, Lys(Dnp)-ATNATMFPRIVGG-Lys(Abz)
T16 chain: KATNATMFPRIVGGK

[17] = biological target: T17, Lys(Dnp)-ATNATPYPRIVGG-Lys(Abz)
T17 chain: KATNATPYPRIVGGK

[18] = biological target: T18, Lys(Dnp)-ATNATYSPRIVGG-Lys(Abz)
T18 chain: KATNATYSPRIVGGK

[19] = biological target: T19, Lys(Dnp)-ATNATRWPRIVGG-Lys(Abz)
T19 chain: KATNATRWPRIVGGK

[20] = biological target: T20, Lys(Dnp)-ATNATKEPRIVGG-Lys(Abz)
T20 chain: KATNATKEPRIVGGK

[21] = biological target: T21, Lys(Dnp)-ATNATHHPRIVGG-Lys(Abz)
T21 chain: KATNATHHPRIVGGK

[22] = biological target: T22, Lys(Dnp)-ATNATFEPRIVGG-Lys(Abz)
T22 chain: KATNATFEPRIVGGK

[23] = biological target: T23, Lys(Dnp)-ATNATESPRIVGG-Lys(Abz)
T23 chain: KATNATESPRIVGGK

[24] = biological target: T24, Lys(Dnp)-ATNATMAPRIVGG-Lys(Abz)
T24 chain: KATNATMAPRIVGGK

[25] = biological target: T25, Lys(Dnp)-ATNATTHPRIVGG-Lys(Abz)
T25 chain: KATNATTHPRIVGGK

[26] = biological target: T26, Lys(Dnp)-ATNATVGPRIVGG-Lys(Abz)
T26 chain: KATNATVGPRIVGGK

[27] = biological target: T27, Lys(Dnp)-ATNATRVPRIVGG-Lys(Abz)
T27 chain: KATNATRVPRIVGGK

[28] = biological target: T28, Lys(Dnp)-ATNATPLPRIVGG-Lys(Abz)
T28 chain: KATNATPLPRIVGGK

[29] = biological target: T29, Lys(Dnp)-ATNATRAPRIVGG-Lys(Abz)
T29 chain: KATNATRAPRIVGGK

[30] = biological target: T30, Lys(Dnp)-ATNATYRPRIVGG-Lys(Abz)
T30 chain: KATNATYRPRIVGGK

[31] = biological target: T31, Lys(Dnp)-ATNATQGPRIVGG-Lys(Abz)
T31 chain: KATNATQGPRIVGGK

[32] = biological target: T32, Lys(Dnp)-ATNATRNPRIVGG-Lys(Abz)
T32 chain: KATNATRNPRIVGGK

[33] = biological target: T33, Lys(Dnp)-ATNATIEPRIVGG-Lys(Abz)
T33 chain: KATNATIEPRIVGGK

[34] = biological target: T34, Lys(Dnp)-ATNATRMPRIVGG-Lys(Abz)
T34 chain: KATNATRMPRIVGGK

[35] = biological target: T35, Lys(Dnp)-ATNATKWPRIVGG-Lys(Abz)
T35 chain: KATNATKWPRIVGGK

[36] = biological target: T36, Lys(Dnp)-ATNATTTPRIVGG-Lys(Abz)
T36 chain: KATNATTTPRIVGGK

[37] = biological target: T37, Lys(Dnp)-ATNATILPRIVGG-Lys(Abz)
T37 chain: KATNATILPRIVGGK

[38] = biological target: T38, Lys(Dnp)-ATNATYPPRIVGG-Lys(Abz)
T38 chain: KATNATYPPRIVGGK

[39] = biological target: T39, Lys(Dnp)-ATNATINPRIVGG-Lys(Abz)
T39 chain: KATNATINPRIVGGK

[40] = biological target: T40, Lys(Dnp)-ATNATLGPRIVGG-Lys(Abz)
T40 chain: KATNATLGPRIVGGK

[41] = biological target: T41, Lys(Dnp)-ATNATPAPRIVGG-Lys(Abz)
T41 chain: KATNATPAPRIVGGK

B1: Human plasma purified Factor Xa (protein)
chain 1: ANSFLEEMKKGHLERECMEETCSYEEAREVFEDSDKTNEFWNKYKDGDQCETSPCQNQGKCKDGLGEYTCTCLEGFEGKNCELFTRKLCSLDNGDCDQFCHEEQNSVVCSCARGYTLADNGKACIPTGPYPCGKQTLER
chain 2: IVGGQECKDGECPWQALLINEENEGFCGGTILSEFYILTAAHCLYQAKRFKVRVGDRNTEQEEGGEAVHEVEVVIKHNRFTKETYDFDIAVLRLKTPITFRMNVAPACLPERDWAESTLMTQKTGIVSGFGRTHEKGRQSTRLKMLEVPYVDRNSCKLSSSFIITQNMFCAGYDTKQEDACQGDSGGPHVTRFKDTYFVTGIVSWGEGCARKGKYGIYTKVTAFLKWIDRSMKTRGLPKAKSHAPEVITSSPLK
FXa kcat/KM [1]: 97 M⁻¹ s⁻¹ | FXa kcat/KM [2]: 61 M⁻¹ s⁻¹ | FXa kcat/KM [3]: 99 M⁻¹ s⁻¹ | FXa kcat/KM [4]: 840 M⁻¹ s⁻¹ | FXa kcat/KM [5]: 540 M⁻¹ s⁻¹ | FXa kcat/KM [6]: 1200 M⁻¹ s⁻¹ | FXa kcat/KM [7]: 72 M⁻¹ s⁻¹ | FXa kcat/KM [8]: 220 M⁻¹ s⁻¹ | FXa kcat/KM [9]: 260 M⁻¹ s⁻¹ | FXa kcat/KM [10]: 14 M⁻¹ s⁻¹ | FXa kcat/KM [11]: 490 M⁻¹ s⁻¹ | FXa kcat/KM [12]: 280 M⁻¹ s⁻¹ | FXa kcat/KM [13]: 42 M⁻¹ s⁻¹ | FXa kcat/KM [14]: 150 M⁻¹ s⁻¹ | FXa kcat/KM [15]: 760 M⁻¹ s⁻¹ | FXa kcat/KM [16]: 55 M⁻¹ s⁻¹ | FXa kcat/KM [17]: 83 M⁻¹ s⁻¹ | FXa kcat/KM [18]: 41 M⁻¹ s⁻¹

B2: Human plasma purified Factor Xa (Molecular Innovations, Inc) (protein)
chain 1: ANSFLEEMKKGHLERECMEETCSYEEAREVFEDSDKTNEFWNKYKDGDQCETSPCQNQGKCKDGLGEYTCTCLEGFEGKNCELFTRKLCSLDNGDCDQFCHEEQNSVVCSCARGYTLADNGKACIPTGPYPCGKQTLER
chain 2: IVGGQECKDGECPWQALLINEENEGFCGGTILSEFYILTAAHCLYQAKRFKVRVGDRNTEQEEGGEAVHEVEVVIKHNRFTKETYDFDIAVLRLKTPITFRMNVAPACLPERDWAESTLMTQKTGIVSGFGRTHEKGRQSTRLKMLEVPYVDRNSCKLSSSFIITQNMFCAGYDTKQEDACQGDSGGPHVTRFKDTYFVTGIVSWGEGCARKGKYGIYTKVTAFLKWIDRSMKTRGLPKAKSHAPEVITSSPLK
FXa kcat/KM [19]: 3000 M⁻¹ s⁻¹ | FXa kcat/KM [20]: 62 M⁻¹ s⁻¹ | FXa kcat/KM [21]: 25 M⁻¹ s⁻¹ | FXa kcat/KM [22]: 140 M⁻¹ s⁻¹ | FXa kcat/KM [23]: 5.3 M⁻¹ s⁻¹ | FXa kcat/KM [24]: 360 M⁻¹ s⁻¹ | FXa kcat/KM [25]: 14 M⁻¹ s⁻¹ | FXa kcat/KM [26]: 49 M⁻¹ s⁻¹ | FXa kcat/KM [27]: 510 M⁻¹ s⁻¹ | FXa kcat/KM [28]: 330 M⁻¹ s⁻¹ | FXa kcat/KM [29]: 2000 M⁻¹ s⁻¹ | FXa kcat/KM [30]: 610 M⁻¹ s⁻¹ | FXa kcat/KM [31]: 140 M⁻¹ s⁻¹ | FXa kcat/KM [32]: 1700 M⁻¹ s⁻¹ | FXa kcat/KM [33]: 1300 M⁻¹ s⁻¹ | FXa kcat/KM [34]: 4600 M⁻¹ s⁻¹ | FXa kcat/KM [35]: 130 M⁻¹ s⁻¹ | FXa kcat/KM [36]: 17 M⁻¹ s⁻¹ | FXa kcat/KM [37]: 700 M⁻¹ s⁻¹ | FXa kcat/KM [38]: 20 M⁻¹ s⁻¹ | FXa kcat/KM [39]: 870 M⁻¹ s⁻¹ | FXa kcat/KM [40]: 140 M⁻¹ s⁻¹ | FXa kcat/KM [41]: 170 M⁻¹ s⁻¹
